Results from patent CN102127167A.
“And” between values parts separate entries of the source, which are not always exact repeats. Equal values may be shown once.

Tests used:
人TNFα (human) [1] = molecular target: 人TNFα (human) (UniProt P01375); assay: cell-based or functional assay
人TNFα (human) [2] = molecular target: 人TNFα (human) (UniProt P01375); assay: SPR (Biacore), TNFa coupled to the chip, antibody as analyte

Sequence of UniProt P01375 (P01375 77-233 limits assumed): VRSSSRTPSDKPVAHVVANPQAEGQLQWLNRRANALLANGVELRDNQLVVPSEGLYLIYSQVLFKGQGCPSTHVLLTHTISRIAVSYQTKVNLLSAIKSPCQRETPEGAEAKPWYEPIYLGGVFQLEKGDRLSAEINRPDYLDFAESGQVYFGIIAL

- IC50(pM), L929细胞保护试验 (人TNFα (human) [1]): 1.37 pM and 2.52 pM and 2.32 pM
- IC50(pM), L929细胞保护试验, 平均值 (人TNFα (human) [1]): 2.42 pM
- Kd (人TNFα (human) [2]): 2.01 nM
Substance: humira (antibody)
